Like-named read-outs stand apart in the source and are kept apart here.
How the values were obtained:
Assay in all cases: EMSA
CSB wild-type [1] = target: T1, CSB wild-type (Homo sapiens, UniProt Q03468 1-1493)
CSB wild-type [2] = target: T1, CSB wild-type; remark: listed apart in the source
CSB wild-type [3] = target: T1, CSB wild-type; remark: listed apart in the source
CSB wild-type [4] = target: T1, CSB wild-type; remark: listed apart in the source

T1 sequence (Q03468 whole entry): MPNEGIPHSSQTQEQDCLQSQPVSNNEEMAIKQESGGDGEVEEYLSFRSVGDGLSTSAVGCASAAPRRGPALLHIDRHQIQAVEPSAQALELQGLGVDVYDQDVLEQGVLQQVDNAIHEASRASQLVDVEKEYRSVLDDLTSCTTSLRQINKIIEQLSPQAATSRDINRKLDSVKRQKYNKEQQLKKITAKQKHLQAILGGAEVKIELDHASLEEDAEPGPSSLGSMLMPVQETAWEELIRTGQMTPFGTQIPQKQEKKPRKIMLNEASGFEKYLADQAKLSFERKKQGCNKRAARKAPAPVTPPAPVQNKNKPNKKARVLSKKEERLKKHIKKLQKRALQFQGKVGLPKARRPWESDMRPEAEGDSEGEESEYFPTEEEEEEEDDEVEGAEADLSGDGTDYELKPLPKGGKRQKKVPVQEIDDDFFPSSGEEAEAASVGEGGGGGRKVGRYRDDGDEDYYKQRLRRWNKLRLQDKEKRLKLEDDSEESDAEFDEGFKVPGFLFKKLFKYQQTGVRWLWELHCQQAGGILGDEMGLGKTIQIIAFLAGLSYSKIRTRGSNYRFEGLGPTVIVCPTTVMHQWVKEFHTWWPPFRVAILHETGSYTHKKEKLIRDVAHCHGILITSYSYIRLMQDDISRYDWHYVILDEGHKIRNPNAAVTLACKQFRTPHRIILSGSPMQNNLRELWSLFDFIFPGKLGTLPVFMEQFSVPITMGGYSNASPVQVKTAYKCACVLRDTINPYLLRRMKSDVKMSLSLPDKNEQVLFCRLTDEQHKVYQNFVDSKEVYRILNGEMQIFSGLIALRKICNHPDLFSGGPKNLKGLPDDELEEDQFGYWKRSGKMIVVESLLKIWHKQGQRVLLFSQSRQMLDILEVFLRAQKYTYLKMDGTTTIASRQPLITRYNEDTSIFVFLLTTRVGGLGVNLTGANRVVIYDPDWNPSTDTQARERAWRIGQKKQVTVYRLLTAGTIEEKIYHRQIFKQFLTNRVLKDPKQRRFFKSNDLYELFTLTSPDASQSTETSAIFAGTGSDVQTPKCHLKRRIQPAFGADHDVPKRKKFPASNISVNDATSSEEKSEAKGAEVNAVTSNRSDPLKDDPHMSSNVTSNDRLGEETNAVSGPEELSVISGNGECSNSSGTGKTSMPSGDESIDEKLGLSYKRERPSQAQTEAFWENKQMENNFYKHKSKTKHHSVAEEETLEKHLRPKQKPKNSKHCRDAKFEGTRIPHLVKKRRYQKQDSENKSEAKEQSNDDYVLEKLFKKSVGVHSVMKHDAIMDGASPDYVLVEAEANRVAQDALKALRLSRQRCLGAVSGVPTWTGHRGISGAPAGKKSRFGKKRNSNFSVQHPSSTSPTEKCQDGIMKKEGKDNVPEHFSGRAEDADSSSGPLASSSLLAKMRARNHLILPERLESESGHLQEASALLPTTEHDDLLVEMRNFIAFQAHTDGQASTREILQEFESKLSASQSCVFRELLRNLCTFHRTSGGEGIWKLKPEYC

B1: 34G/34C (dsDNA)
DNA 1: GTACCCGGGGATCCGTACGGCGCATCAGCTGCAG
DNA 2: CTGCAGCTGATGCGCCGTACGGATCCCCGGGTAC
Kd (CSB wild-type [1]): 20.5 ± 5.2 nM | Kd (CSB wild-type [2]): 13.7 ± 1.1 nM | Kd (CSB wild-type [3]): 10.7 ± 0.6 nM

B2: DNA50/DNA49 fork (dsDNA)
DNA 1: GGGACGCGTCGGCCTGGCACGTCGGCCGCTGCGGCCAGGCACCCGATGGC
DNA 2: TTTGTTTGTTTGTTTGTTTGTTTGCCGACGTGCCAGGCCGACGCGTCCC
Kd (CSB wild-type [4]): 5.9 ± 0.6 nM

B3: RNA50/RNA49 fork (dsRNA)
RNA 1: GGGACGCGUCGGCCUGGCACGUCGGCCGCUGCGGCCAGGCACCCGAUGGC
RNA 2: UUUGUUUGUUUGUUUGUUUGUUUGCCGACGUGCCAGGCCGACGCGUCCC
Kd (CSB wild-type [4]): 3.6 ± 1.5 nM

B4: DNA50/RNA49 fork (DNA:RNA)
DNA: GGGACGCGTCGGCCTGGCACGTCGGCCGCTGCGGCCAGGCACCCGATGGC
RNA: UUUGUUUGUUUGUUUGUUUGUUUGCCGACGUGCCAGGCCGACGCGUCCC
Kd (CSB wild-type [4]): 13.4 ± 3.3 nM

Source: publication PMC2728148
